The results in this text go back to CN109265548A (UNIV SOUTHEAST, dated 2019).

One assay concerns the target T1, PD-L2(人) (human, UniProt Q9BQ51 20-220, limits assumed).
T1 construct: also called 人PD-L2
T1 sequence (looked up): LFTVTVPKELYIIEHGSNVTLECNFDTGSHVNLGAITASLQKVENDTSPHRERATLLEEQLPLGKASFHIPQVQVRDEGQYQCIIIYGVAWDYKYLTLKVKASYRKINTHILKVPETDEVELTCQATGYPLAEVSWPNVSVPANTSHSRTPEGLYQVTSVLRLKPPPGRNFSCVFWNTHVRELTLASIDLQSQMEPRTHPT
As to the kind of experiment: ELISA, antigen coated 0.5 μg per well, detection with rabbit anti-HA and HRP goat anti-rabbit. For orientation: In an ELISA, binding on a coated surface is turned into a signal by an enzyme label.

The target in a further assay is T2, PD-L1(鼠) (鼠 (murine), UniProt Q9EP73 19-239, limits assumed).
T2 construct: also called 鼠源的PD-L1
T2 sequence (Q9EP73 19-239 limits assumed): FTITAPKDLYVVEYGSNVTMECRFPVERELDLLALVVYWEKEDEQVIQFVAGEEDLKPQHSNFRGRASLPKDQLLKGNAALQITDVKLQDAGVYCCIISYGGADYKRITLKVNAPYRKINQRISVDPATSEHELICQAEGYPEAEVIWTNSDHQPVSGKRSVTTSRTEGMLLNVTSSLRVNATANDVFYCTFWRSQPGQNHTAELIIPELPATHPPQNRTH
The description is as above.

B1: 抗PD-L1Nb15 (VHH)
VHH: QVQLVESGGGSVQAGGALRLSCAASGYTSTSNCMGWFRQAPGKEREGVAAIYTGGGSTYYADSVKGRFTISQDNAKNTVYLQMNSLKPEDTAMYYCAAGDLDPAEYSDYDPTVFNYWGQGTLVTVSS
notes: Expressed from pET32a in E. coli BL21(DE3), purified on Ni-IDA and detected in ELISA with an anti-HA antibody; the vector-derived tags are not described; also called antiPD-L1Nb15; 抗PD-L1-VHH15
Regarding B1, the binding result with PD-L2(人) and with PD-L1(鼠) was “no binding (tested: 10μg/mL)” each time.
